Test results as given in paper PMC5114622, “In vivo protein interaction network analysis reveals porin-localized antibiotic inactivation in Acinetobacter baumannii strain AB5075” (Nature Communications, 2016).
“And” between values parts separate entries of the source, which are not always exact repeats. Equal values may be shown once.

Biological target: the molecule itself
Test: cross-linking + co-IP; AB5075-pMMB-oxa23 cells cross-linked with BDP-NHP, lysates denatured with SDS, anti-HA agarose IP; immunoblots with anti-HA, anti-OmpA, streptavidin; DMSO-treated control

B1: Oxa23-HA-Strep (enzyme)
chain: CTVQHNLINETPSQIVQGHNQVIHQYFDEKNTSGVLVIQTDKKINLYGNALSRANTEYVPASTFKMLNALIGLENQKTDINEIFKWKGEKRSFTAWEKDMTLGEAMKLSAVPVYQELARRIGLDLMQKEVKRIGFGNAEIGQQVDNFWLVGPLKVTPIQEVEFVSQLAHTQLPFSEKVQANVKNMLLLEESNGYKIFGKTGWAMDIKPQVGWLTGWVEQPDGKIVAFALNMEMRSEMPASIRNELLMKSLKQLNII
notes: Oxa-23 of Acinetobacter baumannii AB5075; oxa-23 gene with the TAA stop codon omitted so that the HA-Strep tag of the pMMB vector follows; I take the same for this construct and that the signal peptide is cut on export; also called Oxa-23 with C-terminal HA-Strep tags; tagged Oxa-23; source: A. baumannii AB5075 WT cells transformed with pMMB-oxa23-HA-Strep (AB5075-pMMB-oxa23), in lysate; not …
  stoichiometry N: 2 and 4
